Laboratory results published in patent CN101663321A.
Where two headings read alike, the source gives them in different places.

Legend:
Assay in all cases: dot blot: serial dilutions of hLIGHT spotted on PVDF, probed with 5 μg/ml antibody
[1] = molecular target: denatured soluble hLIGHT (boiled in 2x SDS sample buffer) (human) (UniProt O43557)
[2] = molecular target: soluble FLAG-tagged recombinant hLIGHT (Gly66-Val240 with N-terminal FLAG), native form (human) (UniProt O43557)
[3] = molecular target: denatured soluble hLIGHT (boiled in 2x SDS sample buffer) (human) (UniProt O43557); remark: listed apart in the source

lowest detection limit (dot blot) [1] | lowest detection limit (dot blot) [2] | lowest detection limit (dot blot) [3] | Binder
139 ng | 3.9 ng | – | E63 antibody (produced by hybridoma 124E63, ATCC PTA-7818) (antibody, V domains shown) VH: QVQLQESGPGLVKPSETLSLTCIVSGGSVSSGGYYWSWIRQPPGKGLEWIGYIYYSGSTNYNPSLKSRVTISVDTSKNQFSLKLSSVTAADTAVYYCARWITMFRGVGFDPWGQGTLVTVSS VL: EIVLTQSPDFQSVTPKEKVTITCRASQSIGSSLHWYQQKPDQSPKLLIKYASQSFSGVPSRFSGSGSGTDFTLTINSLEAEDAAAYYCHQSSSLPLTFGGGTKVEIK
– | 23 ng | > 5000 ng | F19 antibody (produced by hybridoma 124F19, ATCC PTA-7819) (antibody, human IgG1, V domains shown) VH: QVQLQQWGAGLLKPSETLSLTCAVYGGSFSGYNWHWIRQPPGKGLEWIGEITHSGSTNYNPSLKSRVTISVDTSKNQFSLKLSSVTAADTAVYYCVREIAVAGTGYYGMDVWGQGTTVTVSS VL: AIQLTQSPSSLSASVGDRVTITCRASRGINSAFAWYQQKPGKAPKLLIYDASSLESGVPSRFSGSGSGTDFTLTISSLQPEDFATYYCQQFNSYPLTFGGGTKVEIK
